This note sets out measurements from PMC7244511, “Phosphoproteomics identifies dual-site phosphorylation in an extended basophilic motif regulating FILIP1-mediated degradation of filamin-C” (Communications Biology, 2020).

What is called Kd is the constant that tells how readily two partners part at equilibrium.

Test [1] addresses FILIP1 (filamin A-interacting protein 1), carboxy-terminus (CT) carboxy-terminus (CT) (UniProt Q7Z7B0). In words: co-immunoprecipitation, quantitative immunoblot. The following applies: reference: wild type; sites S2233,S2236. On the technique in general: Immunoblotting shows a protein as a band on a membrane.
For test [2] the target is unchanged. In words: anti-Myc co-immunoprecipitation, quantitative immunoblot. As to conditions: reference: wild type; sites S2233,S2236.
The target of test [3] is T1, FILIP1 CT-GFP (expressed in HEK293 cells) (UniProt Q7Z7B0-2 776-1177).
T1 construct: FILIP1 carboxy-terminus (CT); also called FILIP1-GFP CT; wild-type FILIP1 CT-GFP; source: HEK293 (HEK293T), transfected, in lysate
T1 sequence (looked up): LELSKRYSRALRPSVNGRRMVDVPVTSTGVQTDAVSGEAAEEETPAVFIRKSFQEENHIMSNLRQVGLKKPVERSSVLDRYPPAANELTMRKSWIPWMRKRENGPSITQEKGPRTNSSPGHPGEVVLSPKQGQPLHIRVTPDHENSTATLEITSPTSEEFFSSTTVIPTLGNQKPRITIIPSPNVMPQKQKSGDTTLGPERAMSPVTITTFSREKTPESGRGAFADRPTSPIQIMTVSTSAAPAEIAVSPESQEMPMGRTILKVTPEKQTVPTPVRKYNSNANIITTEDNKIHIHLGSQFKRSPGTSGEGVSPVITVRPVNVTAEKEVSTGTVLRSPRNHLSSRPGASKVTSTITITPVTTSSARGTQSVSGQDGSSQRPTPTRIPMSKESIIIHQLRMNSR
In words: fluorescence correlation spectroscopy (competition); recombinant FLNc d19–21 (44,000 to 21 nM) or its DD mutant (60,000 to 78 nM) titrated to HEK293T lysate with FILIP1 CT-GFP bound to Myc-hFLNc d18–21 DD; PBS pH 7.4, 0.05% Tween-20, 20 °C. As to conditions: one partner purified.

As for “human filamin-C (hFLNc) Ig-like domains 18-21 (d18–21) (from UniProt Q14315) AA (S2233A/S2236A)”, the “binding against the reference” value in test [1] and in test [2] was “stronger” each time.

B1: recombinant hFLNc d19–21, wild type (domain or fragment, human, UniProt Q14315 2036-2410, looked up)
chain: SEIGDASKVRVWGKGLSEGHTFQVAEFIVDTRNAGYGGLGLSIEGPSKVDINCEDMEDGTCKVTYCPTEPGTYIINIKFADKHVPGSPFTVKVTGEGRMKESITRRRQAPSIATIGSTCDLNLKIPGNWFQMVSAQERLTRTFTRSSHTYTRTERTEISKTRGGETKREVRVEESTQVGGDPFPAVFGDFLGRERLGSFGSITRQQEGEASSQDMTAQVTSPSGKVEAAEIVEGEDSAYSVRFVPQEMGPHTVAVKYRGQHVPGSPFQFTVGPLGEGGAHKVRAGGTGLERGVAGVPAEFSIWTREAGAGGLSIAVEGPSKAEIAFEDRKDGSCGVSYVVQEPGDYEVSIKFNDEHIPDSPFVVPVASLSDDARR
notes: human filamin-C, Ig-like domains 19–21; also called wildtype hFLNc d19–21; non-phosphorylated hFLNc d19–21
With B1, the Kd in test [3] was 1170 nM.
